Data taken from the supplement of paper PMC10567573.

B1: NET1 (parent)
chain: IKRTIRVLDVNNQSFREQEEPSNK
B2: DYRK1B (parent)
chain: YQGPGTRRLQEVLGVQTGGPGGRR

Variants of: B1
Assay: protein stability index of a GFP-peptide fusion (GPS, HEK-293T) (PSI 1-6); higher = more stable
Conditions: c terminus: a fixed tail appended
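Note: lentivirally expressed fusions sorted by FACS into six bins by GFP to DsRed ratio, PSI derived from sequencing read proportions per bin multiplied by bin number.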

Protein stability index: each site, then its substitutions
V10: C 3.82, F 3.19, E 4.79, A 3.38, D 4.83
I5: W 3.31, S 4.56, Q 5.04, A 4.53, H 4.69, T 5.1, E 5.05, P 3.78, R 4.82, C 4.41, K 4.75, Y 3.95, N 4.08, M 2.55, D 4.91, F 3.39, L 2.94
D9: R 3.54, T 2.9, Y 2.41, H 4.23, C 2.94, L 1.77, G 3.7, K 4.44, F 2.24, W 2.89, S 3.5, Q 3.26, N 4.11, I 1.58, E 3.91, M 1.91, A 3.31, P 4.36
R3: C 2.69, N 4.86, Q 4.44, K 3.93, P 4.57, D 4.81, T 4.02, H 4.39, W 1.49, E 4.92, Y 2.19, L 1.9, F 1.75, A 3.48, S 4.71, G 4.1, V 1.73, I 1.37, M 2.08
T4: D 4.51, R 3.99, S 4.09, V 2.51, F 2.88, Q 3.86, N 4.13, Y 3.09, I 1.79, M 3.3, K 3.75, G 3.41, W 2.38, L 2.59, C 3.51, H 3.89, E 4.96, P 3.89
K2: P 4.47, L 3.72, D 4.83, N 4.34, R 2.93, T 4.8, Y 2.6, Q 4.63, G 4.51, F 3.04, W 3.11, M 3.75, E 4.01, A 3.74, C 4.05, S 3.29, V 3.33, H 4.01, I 3.05
L8: H 4.93, I 2.96, R 4.68, T 4.72, A 4.45, P 4.93, C 4.93, N 4.57, E 5.07, Y 3.96, Q 4.41, D 4.92, W 3.39, V 3.94, G 4.99, K 4.46, S 4.44, F 3.83, M 3.75
V7: W 2.41, S 4.28, K 4.37, M 3.27, F 3.35, A 3.3, H 4.25, I 4.02, E 3.74, Q 5.07, P 4.22, C 3.62, G 3.92, T 4.21, Y 3.04, N 4.5, L 3.46, D 4.53, R 3.71
R6: F 2.68, K 4.04, M 3.32, H 4.45, T 3.92, V 2.77, S 4.23, A 2.88, L 2.63, P 4.87, C 3.35, Y 2.35, W 2.42, N 3.62, Q 4.16, D 4.77, E 4.65, I 1.99, G 4.51
I1: V 3.54, C 4.76, K 4.14, W 3.45, L 3.27, T 4.49, R 3.73, P 3.94, F 4.03, A 3.82, G 3.67, S 3.99, M 3.63, E 4.07, Q 3.69, H 4.81, Y 4.1, N 3.61, D 4.58

Variants of: B2
Assay: as above
Conditions: c terminus: a fixed tail appended

Protein stability index, by site and new letter:
E11: K 2.3, F 1.51, N 2.98, G 3.78, W 1.55, H 2.43, V 2.56, Y 2.97, T 3.31
T6: L 2.37, W 2.17, C 2.32, Q 3.4, E 3.47, K 2.33, S 2.54, Y 1.77
T17: D 3.45, S 2.77, C 2.95
G14: P 4.17, W 2.11, R 3.37, S 3.14
G3: W 3.1, P 3.39, T 3.52, R 2.25
Q2: P 3.44, D 4.23, K 4.18, G 3.39, S 1.83
V12: M 2.59, K 2.33, S 3.19, R 2.91, A 2.84, P 3.69, G 3.32
Q16: V 2.61, N 3.32, D 4.06, C 2.1, R 3.09, I 1.74
R7: A 3.68, S 3.45, W 1.77, C 1.51, N 2.65, T 3.54, G 3.37, F 2.04, E 4.05
V15: I 2.07, M 2.24, E 3.44, D 3.23
Q10: R 2.91, D 3.3, G 1.96, T 3.39, C 2.72, L 2.28, N 3.85, Y 2.25, F 2.34, V 2.52
L13: E 4.44, R 3.61, D 3.93, T 3.97, K 3.79, H 3.94, P 3.44, I 3.47
L9: H 2.81, V 3.75, S 4.65, W 1.36, G 4.47, T 4.27, E 3.79, K 4.06, F 2.67, A 4.03, Y 3.06
R24: I 3.75, D 3.51, C 3.18, G 3.4, F 2.49
R23: W 2.22, T 3.23, V 2.88, H 3.1
G22: H 3.29, S 3.05, R 2.7, A 3.13, F 2.17, T 3.35, D 3.39
R8: M 2.35, T 2.97, Y 1.91, V 2.66
P20: G 3.15, F 2.32, D 3.51, S 3.28, M 3.02, W 2.02, E 3.3, C 3.49, L 2.82, K 3.83, T 3.32
G5: K 2.94, M 2.46, H 3.17, T 3.22, N 4.4
G18: W 2.81, E 3.52, P 2.84, F 3.23, H 3.19, M 2.79
P4: L 2.39, T 2.79, S 2.32, Y 2.35, R 2.78, C 2.29, K 2.63
G21: W 2.17, S 3.04, Y 2.68, D 3.88, A 3.25, P 3.17, L 3.18, F 2.93, V 2.2
G19: T 3.44, L 2.81, E 3.63, M 2.75, I 2.85, N 3.05, Q 3.05
Y1: T 4.72, N 4.63, V 4.28, P 5.36, K 3.84, D 4.91, C 4.48, M 4.18, L 4.32
